This note sets out measurements from PMC13458767, “C-terminal lysine residues localise NLRP10 at lipid droplets and govern NLRP10 oligomer formation” (EMBO Reports, 2026).

Numbering of substitutions follows the chain as printed. In names and notes the source's numbering stands.

For series [1], the target named is human NLRP10ΔHD2–tail (aa 4–482), MBP-tagged recombinant protein (human) (UniProt Q86W26). The experiment in a line: SEC-MALS; MBP-NLRP10 (4–482) at several concentrations; molecular weights determined; no methods told for the SEC-MALS. (SEC sorts molecules by how far they enter the pores of the column.)
Series [2] deals with the molecule itself. The experiment in a line: SEC; Superose 6 Increase 10/300 GL or Superdex 200 Increase 10/300 GL; 25 mM Tris pH 7.5, 300 mM NaCl, 5 mM ß-ME, 5% glycerol; peak 1 (void) and peak 2 collected.

On to “human NLRP10ΔHD2–tail (aa 4–482), MBP-tagged recombinant protein (from UniProt Q86W26 4-482) (domain or fragment)”, for which the stoichiometry N (as a rule, a count of units in the complex or per binding partner) in series [1] turned out to be 2.

B1: human NLRP10 (aa 4–655), MBP-tev-tagged recombinant protein (natural protein, UniProt Q86W26 4-655, looked up)
chain: AKARKPREALLWALSDLEENDFKKLKFYLRDMTLSEGQPPLARGELEGLIPVDLAELLISKYGEKEAVKVVLKGLKVMNLLELVDQLSHICLHDYREVYREHVRCLEEWQEAGVNGRYNQVLLVAKPSSESPESLACPFPEQELESVTVEALFDSGEKPSLAPSLVVLQGSAGTGKTTLARKMVLDWATGTLYPGRFDYVFYVSCKEVVLLLESKLEQLLFWCCGDNQAPVTEILRQPERLLFILDGFDELQRPFEEKLKKRGLSPKESLLHLLIRRHTLPTCSLLITTRPLALRNLEPLLKQARHVHILGFSEEERARYFSSYFTDEKQADRAFDIVQKNDILYKACQVPGICWVVCSWLQGQMERGKVVLETPRNSTDIFMAYVSTFLPPDDDGGCSELSRHRVLRSLCSLAAEGIQHQRFLFEEAELRKHNLDGPRLAAFLSSNDYQLGLAIKKFYSFRHISFQDFFHAMSYLVKEDQSRLGKESRREVQRLLEVKEQEGNDEMTLTMQFLLDISKKDSFSNLELKFCFRISPCLAQDLKHFKEQMESMKHNRTWDLEFSLYEAKIKNLVKGIQMNNVSFKIKHSNEKKSQSQNLFSVKSSLSHGPKEEQKCPSVHGQKEGKDNIAGTQKEASTGKGRGTEETPKNTYI
notes: MBP is followed by a tev site; no cleavage step is described in the methods; also called NLRP10 (4–655); wild-type NLRP10
For the molecule B1, in series [2], the binding result is on record as “binds”.

B2: Walker A mutant human NLRP10 (aa 4–655 K179A), MBP-tev-tagged recombinant protein (natural protein, UniProt Q86W26 4-655, looked up)
chain: B1 chain with K176A
notes: NLRP10, human, residues 4-655, Walker A mutant K179A; MBP is followed by a tev site; no cleavage step is described in the methods; also called NLRP10 K179A; K179A mutant
For B2, the binding result in series [2] was “binds”.
